According to PMC6471494, “Functional Mechanisms Underlying the Antimicrobial Activity of the Oryza sativa Trx-like Protein” (International Journal of Molecular Sciences, 2019):

Target: the molecule itself
Test: negative-stain transmission electron microscopy; SEC fractions a, b and c of OsTDX on glow-discharged carbon-coated copper grids, 1% uranyl acetate, FEI Tecnai 20 at 200 kV

B1: Oryza sativa Tetratricopeptide Domain-containing thioredoxin (OsTDX) protein (natural protein, UniProt Q6ES52 1-317, looked up)
chain: MATAGASSFEDEIMESDIELEGEAVEPDNDPPQKMGDPSVEVSDEKRDQAQLCKNKGVDAFSEGKLDEAIEHLTEAIVLNPTSAIAYATRAVIFVKSKKPNAAIRDADAALKINPDSAKGYKSRGMAKAMLGKWEEAAQDLRMAAKLDYDEEIGAELKKVEPNVLKIEEHRKKYERLRKERDIKKAEMEKQRKHAEEVSAASAALKDGDVIAIHSSSELDTKLKAASSLSRLVVLYFTAAWCGPCRFIGPVCKSLAEKHRNVVFLKVDIDELNSVAYRWNVSSVPSFFFVRNGKEIDKVVGADKNGLERKVAQHGSS
notes: OsTDX, Oryza sativa TPR repeat-containing thioredoxin; full-length cDNA amplified from a rice leaf cDNA library and cloned into pGEX-2T; predicted MW ~35 kDa; also called rice Trx-like protein; recombinant OsTDX; source: E. coli BL21(DE3), purified (glutathione-agarose, GST cleaved by thrombin, FPLC SEC 650 column)
stoichiometry N: 2
